According to patent US20220403174A1, “METHOD FOR PREPARING COLORANT HAVING TARGET COLOR AND COLORANT” (Fudan University, priority 2021, published 2022):

Assay: stability of the structural color on a baked biscuit at high temperature
Format: physicochemical
Conditions: 130-150° C.
Method: At block 902, a predetermined solution mixed with the submicron particles prepared from the predetermined material and the cuttlefish juice submicron particles is applied to a target object. The target object, for example, is food such as, but not limited to, various pastries and candies. For example, a mixture solution of the TiO2 submicron particles and cuttlefish juice submicron particles are added dropwise onto a surface of a biscuit.
At block 904, the target object is baked or frozen to evaporate or sublimate the predetermined solution such that the submicron particles prepared from the predetermined material and the cuttlefish juice submicron particles can be self-assembled into the amorphous photonic crystal structure on the target object, where the baking temperature is less than or equal to 250° C.
For example, when baked, the biscuit having drops of the mixture solution added onto the surface is dried with the increasing baking temperature. In the case, the submicron particles prepared from the predetermined material and the cuttlefish juice submicron particles are self-assembled to generate the structural color of the amorphous photonic crystal structure. The structural color is stable in the baked state at a high temperature (130-150° C.), and the legacy phycocyanin will fade at such high temperature. […]

In the case of phycocyanin, the “color stability in the baked state” value is reported as “will fade”.
